Laboratory results: article PMC12562645, “Enhancement of Activity of Thermophilic Inorganic Pyrophosphatase Ton1914 via Site-Directed Mutagenesis” (Biomolecules, 2025)
Numbering of substitutions follows the chain as printed. Numbers in names are those of the source.

B1: Ton1914 (Thermococcus onnurineus NA1) (protein)
chain: MNPFHELEPGPEVPEVVYALIEIPKGSRNKYELDKKTGLLKLDRVLYSPFFYPVDYGIIPQTWYDDGDPFDIMVIMREPVYPLTIVEARPIGIMKMEDSGDKDWKVLAVPVEDPYFNDWKDIDDVPKAFLDEIAHFFQRYKELQGKVTTVEGWGTAEEAKREILRAIEMYKEKFGKKE
notes: pET28a-Ton1914 expressed in E. coli BL21(DE3); heat-treated (80 °C) supernatant concentrated by ultrafiltration
B2: Ton1914 (Thermococcus onnurineus NA1; D101K) (protein)
chain: B1 chain with D101K
notes: as for B1
B3: Ton1914 (Thermococcus onnurineus NA1; D101K/L42F) (protein)
chain: B1 chain with L42F, D101K
notes: as for B1
B4: Ton1914 (Thermococcus onnurineus NA1; E97Y) (protein)
chain: B1 chain with E97Y
notes: as for B1
B5: Ton1914 (Thermococcus onnurineus NA1; D101K/E97Y) (protein)
chain: B1 chain with E97Y, D101K
notes: as for B1
B6: Ton1914 (Thermococcus onnurineus NA1; L42F) (protein)
chain: B1 chain with L42F
notes: as for B1
B7: Ton1914 (Thermococcus onnurineus NA1; E97Y/L42F) (protein)
chain: B1 chain with L42F, E97Y
notes: as for B1

Substrate: O=P(O)(O)OP(=O)(O)O
Experiment: purified protein
Type: biochemical, Thermococcus onnurineus
Details: Mg2+, 90 °C, pH 9, pyrophosphate 0.05–1.0 mM, unit mM doubtful (M would fit the substrate range)

Protein	Km
B1	3.03 ± 0.18 × 10^−4 mM
B2	1.03 ± 0.04 × 10^−4 mM
B3	6.34 ± 0.82 × 10^−4 mM
B4	5.94 ± 0.14 × 10^−4 mM
B5	3.48 ± 0.27 × 10^−4 mM
B6	3.18 ± 0.05 × 10^−4 mM
B7	8.49 ± 0.30 × 10^−4 mM
